# From publication PMC6073210, “Adducin‐1 is essential for spindle pole integrity through its interaction with TPX2” (EMBO Reports, 2018)
# B1: FLAG-ADD1 WT (adducin-1), transiently expressed in HEK293 cells [not stated] / GST-TPX2 aa 120–370 fusion protein [human] (parent)
# chain 1: MNGDSRAAVVTSPPPTTAPHKERYFDRVDENNPEYLRERNMAPDLRQDFNMMEQKKRVSMILQSPAFCEELESMIQEQFKKGKNPTGLLALQQIADFMTTNVPNVYPAAPQGGMAALNMSLGMVTPVNDLRGSDSIAYDKGEKLLRCKLAAFYRLADLFGWSQLIYNHITTRVNSEQEHFLIVPFGLLYSEVTASSLVKINLQGDIVDRGSTNLGVNQAGFTLHSAIYAARPDVKCVVHIHTPAGAAVSAMKCGLLPISPEALSLGEVAYHDYHGILVDEEEKVLIQKNLGPKSKVLILRNHGLVSVGESVEEAFYYIHNLVVACEIQVRTLASAGGPDNLVLLNPEKYKAKSRSPGSPVGEGTGSPPKWQIGEQEFEALMRMLDNLGYRTGYPYRYPALREKSKKYSDVEVPASVTGYSFASDGDSGTCSPLRHSFQKQQREKTRWLNSGRGDEASEEGQNGSSPKSKTKWTKEDGHRTSTSAVPNLFVPLNTNPKEVQEMRNKIREQNLQDIKTAGPQSQVLCGVVMDRSLVQGELVTASKAIIEKEYQPHVIVSTTGPNPFTTLTDRELEEYRREVERKQKGSEENLDEAREQKEKSPPDQPAVPHPPPSTPIKLEEDLVPEPTTGDDSDAATFKPTLPDLSPDEPSEALGFPMLEKEEEAHRPPSPTEAPTEASPEPAPDPAPVAEEAAPSAVEEGAAADPGSDGSPGKSPSKKKKKFRTPSFLKKSKKKSDS
# chain 2: RSLRLSAQKDLEQKEKHHVKMKAKRCATPVIIDEILPSKKMKVSNNKKKPEEEGSAHQDTAEKNASSPEKAKGRHTVPCMPPAKQKFLKSTEEQELEKSMKMQQEVVEMRKKNEEFKKLALAGIGQPVKKSVSQVTKSVDFHFRTDERIKQHPKNQEEYKEVNFTSELRKHPSSPARVTKGCTIVKPFNLSQGKKRTFDETVSTYVPLAQQVEDFHKRTPNRYHLRSKKDDINLLPSKSSVTKICRDPQTP
# Variants of: B1
# Test: GST pull-down (immunoblot quantification)
# Conditions: with GST-TPX2 aa 120–370 fusion protein [human]; lysates from HEK293 cells; five independent experiments; means ± s.d.; parent: 100; read off a plot
row,percent of parent [%],Variant
1,40,chain 1 S726A
